Data reported in publication doi:10.1101/2024.02.03.578754 (bioRxiv, 2024).
Where no end group is shown, it is not given here.

Target: Arabidopsis thaliana O-acetylserine sulfhydrylase (OASS) (Arabidopsis thaliana, UniProt P47998 3-322)
Test: fluorescence polarisation

Sequence of Arabidopsis thaliana O-acetylserine sulfhydrylase (OASS) (P47998 3-322): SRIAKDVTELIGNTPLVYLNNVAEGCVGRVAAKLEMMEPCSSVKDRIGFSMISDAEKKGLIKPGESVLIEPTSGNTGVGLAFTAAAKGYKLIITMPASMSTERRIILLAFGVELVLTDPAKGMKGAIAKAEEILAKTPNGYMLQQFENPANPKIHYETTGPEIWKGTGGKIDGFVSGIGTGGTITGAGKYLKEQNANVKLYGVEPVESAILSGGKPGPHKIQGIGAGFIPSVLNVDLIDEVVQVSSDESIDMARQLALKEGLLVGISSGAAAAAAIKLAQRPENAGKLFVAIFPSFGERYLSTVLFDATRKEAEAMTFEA

binding result: binds
B1: FITC-labeled SAT-derived peptide YLTEWSDYVI (FITC-SATp) (peptide)
peptide: YLTEWSDYVI
modifications: also: FITC conjugate, position not given here
